Source: US20190292266A1 (NAVIGO PROTEINS, published 2019)

Molecular target: T1, CD3 (Example 7)
T1 construct: Partner of the 145-2C11 Fab and its fusions
Experiment: SPR, biotinylated CD3 on SA chip, Langmuir 1:1
Protocol: For SPR-analysis of PD1/CD3, a CM5 sensor Chip (GE Healthcare) with immobilized target PD1 (about 800 RU) was prepared. CD3 was 10 times biotinylated and immobilized on SA coupled sensor chip (GE Healthcare) of about 200 RU. Specific binding of biotin and streptavidin provides a strong interaction of the target protein on the chip. Injection of free biotin blocks unbound streptavidin avoiding unspecific interaction during measurement. Determination of dissociation constant and data evaluation was equal to Example 6.

T1 sequence (P22646 22-108): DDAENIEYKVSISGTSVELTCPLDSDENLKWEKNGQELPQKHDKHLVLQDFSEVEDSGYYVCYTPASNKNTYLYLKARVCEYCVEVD

B1: 145-2C11 Fab Fragment (Fab, V domains shown)
VH: EVQLVESGGGLVQPGKSLKLSCEASGFTFSGYGMHWVRQAPGRGLESVAYITSSSINIKYADAVKGRFTVSRDNAKNLLFLQMNILKSEDTAMYYCARFDWDKNYWGQGTMVTVSS
VL: DIQMTQSPSSLPASLGDRVTINCQASQDISNYLNWYQQKPGKAPKLLIYYTNKLADGVPSRFSGSGSGRDSSFTISSLESEDIGSYYCQQYYNYPWTFGPGTKLEIKR
notes: also called PID 38; CD3 specific Fab fragment
Kd: 0.0134 µM
koff: 0.00296 s⁻¹
kon: 221000 M⁻¹ s⁻¹
